For the experiment, the target named is microtubules (porcine brain Tubulin) (porcine (brain)) (UniProt P02550). As to the kind of experiment: turbidimetry.

Sequence of LEM2_(188-212) peptide (Q8NC56 188-212): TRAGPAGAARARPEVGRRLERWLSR
Sequence of LEM2_(1-208) (Q8NC56 1-208): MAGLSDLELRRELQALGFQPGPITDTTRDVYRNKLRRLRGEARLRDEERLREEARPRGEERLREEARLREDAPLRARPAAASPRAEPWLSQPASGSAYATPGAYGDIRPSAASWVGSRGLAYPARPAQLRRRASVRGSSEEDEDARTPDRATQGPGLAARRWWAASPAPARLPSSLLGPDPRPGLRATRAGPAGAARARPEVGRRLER

“LEM2_(1-208) (from UniProt Q8NC56 1-208) (domain or fragment)” had a half-maximal scattering concentration (MT bundling) of 1.3 µM. In turn, “LEM2_(188-212) peptide (from UniProt Q8NC56 188-212)” gave a half maximal concentration (MT bundling) of 85.1 µM.

These data come from paper doi:10.1101/577460.
